According to publication PMC6101483, “Investigating mycobacterial topoisomerase I mechanism from the analysis of metal and DNA substrate interactions at the active site”:

Molecular target: T1, MtbTOP1-704t (Mycobacterium tuberculosis, UniProt P9WG49 2-704)
T1 sequence: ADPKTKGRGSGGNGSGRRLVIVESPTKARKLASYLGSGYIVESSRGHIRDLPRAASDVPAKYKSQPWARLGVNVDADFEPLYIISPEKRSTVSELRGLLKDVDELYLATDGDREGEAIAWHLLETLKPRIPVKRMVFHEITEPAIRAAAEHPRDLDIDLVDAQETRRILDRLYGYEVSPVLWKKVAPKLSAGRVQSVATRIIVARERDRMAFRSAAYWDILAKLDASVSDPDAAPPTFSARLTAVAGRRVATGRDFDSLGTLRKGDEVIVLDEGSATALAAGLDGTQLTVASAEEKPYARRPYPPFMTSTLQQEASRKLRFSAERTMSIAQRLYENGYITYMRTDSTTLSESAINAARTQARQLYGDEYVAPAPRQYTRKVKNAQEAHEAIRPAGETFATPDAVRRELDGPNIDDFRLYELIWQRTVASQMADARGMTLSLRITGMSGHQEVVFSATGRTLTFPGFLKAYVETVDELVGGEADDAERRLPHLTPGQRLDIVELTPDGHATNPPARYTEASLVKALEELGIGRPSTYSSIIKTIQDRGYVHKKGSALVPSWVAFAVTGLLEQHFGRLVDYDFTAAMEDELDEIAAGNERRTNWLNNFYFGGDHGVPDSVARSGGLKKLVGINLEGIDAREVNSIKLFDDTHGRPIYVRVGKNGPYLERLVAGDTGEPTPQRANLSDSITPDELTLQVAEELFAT
Experiment: X-ray crystallography; no metal at active site; 2.42 A
Conditions: protein: recombinant; tags: His6-Mocr removed by TEV; N-terminal SNA remains; single strand

B1: MTS2-11 (ssDNA)
DNA: TTCCGCTTGAC
binding result: binds
